From the supplement of paper PMC9732359
± gives the uncertainty stated by the source.

Assay: protein stability index of a GFP-peptide fusion (yeast GPS) (PSI 1-4); higher = more stable; sorted into four equal gates, so the index is relative within each strain
Procedure, shortened: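 Tiled 17-residue yeast protein peptides were fused downstream of GFP in a plasmid that also expresses Cherry, and the pooled library was carried in yeast. Mid-log cultures in leucine-free medium were sorted into four equal gates by GFP/Cherry fluorescence ratio, and plasmids from each gate were PCR-amplified and Illumina-sequenced, with reads assigned to strains by barcodes. The protein stability index for each peptide was each gate's read frequency times its gate number, summed.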

| Sequence | protein stability index (doa10∆) | protein stability index (pdr5∆) | protein stability index (san1∆) | protein stability index (ubr1∆) |
| --- | --- | --- | --- | --- |
| KKKGLDENTSGKISKPR [PRP28] | 3.5 ± 0.091 | 3.23 ± 0.14 | 3.52 ± 0.065 | 3.45 ± 0.099 |
| FNSVVNLSRYPKSGIDI [MTR3] | 2.66 ± 0.055 | 2.96 ± 0.086 | 2.82 ± 0.079 | 3.03 ± 0.075 |
| GSIGSRKYSFNYSSLPS [YAR002W/NUP60] | 1.95 ± 0.059 | 2.39 ± 0.062 | 2.12 ± 0.081 | 1.65 ± 0.039 |
| LMRQALAIKDSKKRFAA [RPO21] | 1.83 ± 0.062 | 2.12 ± 0.055 | 1.98 ± 0.072 | 1.53 ± 0.049 |
| LLLTIQLLIIEKEWENA [SRP72] | 1.42 ± 0.053 | 1.73 ± 0.059 | 2.07 ± 0.12 | 2.26 ± 0.045 |
| LLRSRLATRRVLQEYRL [RPO21] | 2.62 ± 0.067 | 2.07 ± 0.083 | 2.27 ± 0.11 | 1.63 ± 0.072 |
| FKGHSHIVQDCTLTADG [ASC1] | 1.67 ± 0.066 | 2.04 ± 0.087 | 2.06 ± 0.16 | 1.55 ± 0.065 |
| KHWQERVKVHFDQAGKK [RPL13A] | 2.31 ± 0.046 | 2.33 ± 0.047 | 2.28 ± 0.064 | 2.35 ± 0.036 |
| DPNNPVDFDGLDIKRVG [SNF12] | 3.5 ± 0.087 | 3.32 ± 0.086 | 3.32 ± 0.097 | 3.25 ± 0.063 |
| EIGITQQRIVSAYEASM [RRP4] | 3.04 ± 0.098 | 2.98 ± 0.081 | 2.75 ± 0.12 | 2.85 ± 0.065 |
| YISLLKLQGLYENIPIY [YDL116W/NUP84] | 1.67 ± 0.06 | 1.42 ± 0.045 | 1.59 ± 0.12 | 1.25 ± 0.041 |
| NEDSKAFHTAVLRLNAI [NUT1] | 3.26 ± 0.058 | 3.34 ± 0.055 | 3.41 ± 0.047 | 3.27 ± 0.051 |
| CVHMVYEYAEHDLLQII [SSN3] | 2.26 ± 0.086 | 2.21 ± 0.089 | 2.12 ± 0.11 | 2.48 ± 0.08 |
| LIRFDESITKAMEFIFG [SMC2] | 2.45 ± 0.082 | 2.52 ± 0.17 | 2.35 ± 0.16 | – |
| NPMKKHKPNEGRTPNIS [SIR4] | 2.88 ± 0.068 | 2.86 ± 0.055 | 2.88 ± 0.052 | 2.97 ± 0.036 |
| NVVPYHRNTSDYYYEDA [SWI1] | 2.85 ± 0.085 | 3.13 ± 0.075 | 3.03 ± 0.08 | 3.08 ± 0.055 |
| NQDSVKTYALESINNVV [RPN2] | 3.23 ± 0.1 | 3.21 ± 0.1 | 2.95 ± 0.074 | 3.31 ± 0.058 |
| KTKEAVAALKAVGAHSD [RPL4A] | 3.47 ± 0.087 | 3.51 ± 0.067 | 3.08 ± 0.096 | 3.38 ± 0.062 |
| MNGNTNANTVFAGSNNQ [YOR098C/NUP1] | 2.63 ± 0.12 | 3.27 ± 0.12 | 3.31 ± 0.16 | 3.26 ± 0.085 |
| KPDSDIVALSSEEINQY [PRE6] | 3.12 ± 0.05 | 3.03 ± 0.047 | 3.185 ± 0.03 | 3.17 ± 0.034 |
| IPMDFIRNVLVTVDQYV [SSN2] | 1.13 ± 0.047 | 1.58 ± 0.056 | 1.33 ± 0.091 | 1.63 ± 0.06 |
| TQNSRHYMVHEALNLLK [LIN1] | 3.03 ± 0.086 | 2.98 ± 0.075 | 2.76 ± 0.077 | 3.07 ± 0.064 |

| Sequence | protein stability index (doa10∆) | protein stability index (pdr5∆) | protein stability index (san1∆) | protein stability index (ubr1∆) |
| --- | --- | --- | --- | --- |
| LVEAAKLLKIPKFISEA [YDL116W/NUP84] | 2.65 ± 0.081 | 2.61 ± 0.064 | 2.46 ± 0.088 | 2.76 ± 0.042 |
| FKIHTAKVKKTGEFDFE [RPT4] | 2.3 ± 0.11 | 3.06 ± 0.12 | 2.29 ± 0.17 | 2.81 ± 0.12 |
| LATDVTTLNEMFRYKTN [PUP3] | 1.85 ± 0.14 | 2.72 ± 0.11 | 1.91 ± 0.077 | 2.53 ± 0.1 |
| VDPFDSDEEESVLDEQE [SNU114] | 3.36 ± 0.095 | 3.5 ± 0.12 | 3.39 ± 0.15 | 3.36 ± 0.073 |
| KDSTAGKKVFETQYFWK [YJR042W/NUP85] | – | – | 3.03 ± 0.21 | – |
| KCSATNRIIKADDHASV [RPS21A] | 2.92 ± 0.053 | 2.96 ± 0.053 | 3.13 ± 0.049 | 3.11 ± 0.039 |
| SVGNLEVVKSLYDRPLK [NAS6] | 3.29 ± 0.19 | 2.89 ± 0.2 | 3.12 ± 0.075 | 3.34 ± 0.1 |
| IKVLLRQNRRPELGDKF [RET1] | 3.15 ± 0.25 | 3.49 ± 0.18 | 3.36 ± 0.09 | 3.41 ± 0.092 |
| ELEQLVEFNRKVVIPNL [RPN3] | 3.3 ± 0.14 | 2.77 ± 0.28 | 3.26 ± 0.071 | 3.25 ± 0.11 |
| EMNLHVPQSEETRAELS [RPO21] | 3.17 ± 0.2 | 3.31 ± 0.092 | 3.1 ± 0.1 | 3.15 ± 0.11 |
| FPQGLNIVMDSKQNGIE [SSN8] | 3.11 ± 0.091 | 3.04 ± 0.21 | 3.26 ± 0.078 | 2.61 ± 0.1 |
| MPPKKSWRNITNLSGGE [SMC4] | 2.69 ± 0.12 | 2.85 ± 0.14 | 2.64 ± 0.12 | 2.96 ± 0.1 |
| SVERGRKRAHSLVSTQS [REC8] | 3.21 ± 0.082 | 3.12 ± 0.066 | 3.26 ± 0.047 | 3.16 ± 0.042 |
| DMLLHKYYIVSSSKSMI [SRB8] | 1.26 ± 0.074 | 1.47 ± 0.062 | 1.7 ± 0.14 | 1.61 ± 0.079 |
| LNVGNVLPLGSVPEGTI [RPL2A] | 3.2 ± 0.077 | 3.15 ± 0.082 | 3.26 ± 0.1 | 3.28 ± 0.061 |
| FVDLNEKELQNEIKQLG [SRB4] | 2.31 ± 0.072 | 2.41 ± 0.17 | 2.13 ± 0.2 | 2.78 ± 0.14 |
| LTHRLGGDTCSSDGALC [POP1] | 2.96 ± 0.11 | 3.39 ± 0.084 | 3.17 ± 0.12 | 3.19 ± 0.054 |
| MPQSGTGVSVEAVDDVF [RPN11] | 3.35 ± 0.11 | 3.12 ± 0.11 | 3 ± 0.092 | 3.19 ± 0.051 |
| YPREEEEDYNEFNSIDR [PRP8] | 3.32 ± 0.09 | 3.24 ± 0.1 | 3.1 ± 0.068 | 3.27 ± 0.08 |
| EASKKSAVKPRPLKLER [FAS1] | 3.1 ± 0.15 | 3.16 ± 0.13 | 2.88 ± 0.17 | 3.05 ± 0.11 |
| IWVGEWKEVLAHNPELE [RPO31] | 3 ± 0.087 | 2.36 ± 0.078 | 2.74 ± 0.072 | 2.74 ± 0.053 |
| KGKKGQKKRVVDPFTRK [RPS1A] | 3.25 ± 0.13 | 3.69 ± 0.18 | 3.19 ± 0.15 | 3.47 ± 0.056 |
